Reference: the supplement of paper PMC10567573

B1: FBXO3 (parent)
chain: FIDTYSDVGRYIDHYAAIKKAWDD
B2: FEM1A (parent)
chain: PCCSSSPEEPLNGESYESCCPTSR

Variants of: B1
Assay: protein stability index of a GFP-peptide fusion (GPS, HEK-293T) (PSI 1-6); higher = more stable
Conditions: c terminus: a fixed tail appended
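Also: lentivirally expressed fusions sorted by FACS into six bins by GFP to DsRed ratio, PSI derived from sequencing read proportions per bin multiplied by bin number.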

Protein stability index of substitutions, site by site:
K20: S 1.54, V 1.44, Y 2.08, R 1.67, W 2.86, T 1.61
D24: T 2.51, P 2.28, M 1.82, S 1.44, F 1.67, E 2.4, H 2.7, C 1.32, R 1.99, K 1.58, I 2.86, N 1.54, L 1.79, G 1.61, Q 2.39, A 2.83, W 2.07, Y 2.19, V 2.6
D23: T 1.97, V 1.48, F 1.87, S 1.64, Q 1.44, N 2.29, K 1.7, H 1.81, I 3.3, Y 2.04, G 1.35, M 2.56, E 2.31, A 1.74, C 2.82, L 1.61, W 3.21, P 2.1, R 1.72
A21: Q 1.82, Y 1.85, L 1.72, S 2.12, I 2.48, G 3.18, M 3.02, F 1.96, V 1.22, W 1.7, E 1.88, P 1.97, H 1.61, D 3.43, T 2.23, K 1.88, C 1.82, R 1.96, N 2
W22: N 1.68, M 1.64, V 1.61, L 2.29, A 2.05, G 1.85, E 2.1, F 1.39, S 1.75, T 1.95, P 1.69, C 1.95, Q 1.26, Y 2.3, R 1.86, K 3, D 2.05, I 2.1, H 2.02

Variants of: B2
Assay: as above
Conditions: c terminus: a fixed tail appended

Protein stability index: each site, then its substitutions
L11: N 4.57, D 3.94, C 3.54, V 4.2, G 3.81, R 3.93, F 3.75, E 3.5, A 4.52, W 2.82, K 3.77, Q 3.86, T 4.11, H 4.2, I 3.72, M 3.79, P 4.08, S 3.84, Y 3.55
P10: E 3.7, F 3.5, V 3.73, A 4.07, Y 3.14, H 3.46, K 3.5, I 3.6, R 3.82, C 3.46, T 3.1, N 2.96, M 3.73, L 3.41, S 3.91, W 2.25, D 4.17, Q 3.65
C3: E 5.27, P 4.95, L 4.76, M 5.05, H 4.85, R 4.23, F 4.83, D 5.82, I 4.19, S 5.22, A 4.02, K 4.7, W 4.79, Q 5.4, Y 4.66, G 4.91, N 4.75, T 5.06, V 5
E8: N 3.35, Y 2.65, V 2.38, W 1.63, F 2.37, K 2.69, G 3.06, A 2.87, I 3.06, D 3.51, P 3.47, H 3.33, L 2.81, C 3.45, M 2.48, R 2.88, T 3.03, Q 3.4
S4: N 3.95, Q 3.67, F 3.33, G 3.5, V 4.1, D 4.42, H 4.21, K 3.65, M 3.19, R 3.14, P 4.58, T 4.13, E 3.87, W 3.85, A 3.72, C 1.94, L 2.98, Y 3.37, I 3.81
N12: T 3.89, G 3.88, M 3.98, S 4.38, E 4.42, A 3.71, H 3.48, I 4.22, P 2.66, Q 3.32, C 3.43, K 2.97, F 3.01, D 4.86, V 3.58, R 3.48, Y 3.96, W 3.03, L 4.04
G13: I 3.42, C 3.54, V 3.51, S 3.75, A 4.14, R 3.96, K 4.05, Y 3.01, P 4.01, F 3.26, N 3.46, Q 4.43, D 4.43, W 2.79, L 3.63, E 5.17, T 3.75, H 4.14, M 3.29
P1: V 3.84, Y 3.26, A 4.21, W 2.77, S 3.54, E 4.44, L 3.69, F 3.17, D 4.55, I 3.97, K 2.47, R 3.47, Q 3.95, N 3.96, T 3.6, C 1.83, M 3.67, H 3.85, G 4.6
S5: I 3.4, L 3.02, P 3.49, E 4.24, D 4.85, F 2.48, H 4.12, K 2.85, R 3.28, V 4.45, T 3.9, N 3.47, Q 3.6, Y 2.6, G 3.66, M 2.53, A 3.49, C 3.38, W 3.02
S6: P 3.76, M 3.57, R 3.66, W 3.27, I 3.7, G 3.53, L 2.91, A 3.22, Q 4.11, E 4.01, D 3.92, V 3.8, N 3.81, T 3.93, Y 2.97, K 3.18, H 3.4, F 3.13, C 3.63
P7: Q 4.44, G 3.38, H 3.37, N 3.14, K 3.65, E 3.93, V 4.45, L 3.07, T 3.29, M 3.11, A 3.34, C 3.67, W 2.44, Y 3.02, S 3.62, D 4.65, I 3.03, F 3.51
E14: G 2.24, M 2.99, C 2.86, K 2.9, I 2.88, L 3.01, F 2.71, H 3.81, A 3.77, D 3.77
E9: A 3.39, G 3.67, V 3.08, P 3.36, D 3.64, I 3.33, S 2.88, L 2.69, N 3.64, F 2.87, Y 2.77, K 3.41, M 2.69, R 3.35, T 3.34, W 2.02, Q 3.52, C 3.21, H 3.67
C2: S 4.21, T 5.23, H 4.79, K 4.65, G 4.19, N 5.15, V 5.21, Q 4.89, Y 4.62, P 5.66, W 4.37, M 4.98, I 3.92, D 5.12, L 4.75, F 4.55, E 4.77
